According to article PMC8053085, “Di-phosphorylated BAF shows altered structural dynamics and binding to DNA, but interacts with its nuclear envelope partners” (Nucleic Acids Research, 2021):
“And” between values parts separate entries of the source, which are not always exact repeats. Identical values can stand only once.

T1: Di-phosphorylated BAF (BAF phosphorylated by VRK1 on Thr3 and Ser4) (human, UniProt O75531 1-89, glycine as residue 1 instead of the native methionine | C67 mutated into …, phosphothreonine at 3, phosphoserine at 4)
T1 sequence: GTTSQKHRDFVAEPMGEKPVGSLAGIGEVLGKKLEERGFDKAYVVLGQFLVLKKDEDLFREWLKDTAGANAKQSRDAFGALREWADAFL

T2: Barrier-to-autointegration factor (BAF construct with the four cysteines replaced by alanines) (human, UniProt O75531 1-89, glycine as residue 1 instead of the native methionine | C67 mutated into …)
T2 sequence: T1 sequence

T3: IgFold domain of human lamin A/C from amino acid 411 to amino acid 566 (human, UniProt P02545 411-566)
T3 construct: human lamin A/C, residues 411-566 including the IgFold domain; Cloned into a pGEX vector; also called LamIgF; lamin A/C Igfold domain; source: E. coli BL21 DE3 Star, purified (glutathione beads, thrombin cleavage, gel filtration); 15N labelled for NMR
T3 sequence (looked up): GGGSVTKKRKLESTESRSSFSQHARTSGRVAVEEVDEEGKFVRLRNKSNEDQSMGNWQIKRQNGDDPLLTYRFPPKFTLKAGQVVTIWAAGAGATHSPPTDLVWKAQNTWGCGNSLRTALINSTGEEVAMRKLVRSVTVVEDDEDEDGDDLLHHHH

B1: LEM domain of human emerin from amino acid 1 to amino acid 46 (domain or fragment, UniProt P50402 1-46, looked up)
chain: MDNYADLSDTELTTLLRRYNIPHGPVVGSTRRLYEKKIFEYETQRR
notes: human emerin, residues 1-46 (LEM domain); also called emerin LEM domain; LEM fragment
B2: Barrier-to-autointegration factor (BAF construct with the four cysteines replaced by alanines) (natural protein, human, UniProt O75531 1-89, looked up)
chain: T1 sequence
notes: human barrier-to-autointegration factor (BANF1), an 89-aa protein; residue 1 is a glycine left by the TEV site instead of the native methionine; all four cysteines mutated into alanine; also called BAF WT; non-phosphorylated BAF; not shown: His tag, N-terminal, cleaved
B3: Di-phosphorylated BAF (BAF phosphorylated by VRK1 on Thr3 and Ser4) (natural protein, human, UniProt O75531 1-89, looked up)
chain: T1 sequence
modifications: phosphothreonine at 3, phosphoserine at 4
notes: human barrier-to-autointegration factor (BANF1), an 89-aa protein; residue 1 is a glycine left by the TEV site instead of the native methionine; all four cysteines mutated into alanine; phosphorylated on Thr3 and Ser4; Same construct as m1, then phosphorylated; also called pBAF; not shown: His tag, N-terminal, cleaved

What was measured:
[1] = tested on: BAF A12T (human); test: ITC; conditions: ITC: 50 mM Tris-HCl pH 8.0, 150 mM NaCl, 15 C, 20 uM BAF in cell, DNA 200 uM (7/21 nt) or 100 uM (48 nt) in syringe; fluorescence assay buffer not given in the …
[2] = tested on: BAF WT (Cys-less construct) (human); test: ITC; conditions: ITC: 50 mM Tris-HCl pH 8.0, 150 mM NaCl, 15 C, 20 uM BAF in cell, DNA 200 uM (7/21 nt) or 100 uM (48 nt) in syringe; fluorescence assay buffer not given in the …
[3] = tested on: BAF S4E (human); test: fluorescence, dye-labelled coated dsDNA; conditions: mean of 2; ITC: 50 mM Tris-HCl pH 8.0, 150 mM NaCl, 15 C, 20 uM BAF in cell, DNA 200 uM (7/21 nt) or 100 uM (48 nt) in syringe; fluorescence assay buffer not given in the …
[4] = tested on: pBAF (pThr3, pSer4) (human); test: fluorescence, dye-labelled coated dsDNA; conditions: mean of 2; ITC: 50 mM Tris-HCl pH 8.0, 150 mM NaCl, 15 C, 20 uM BAF in cell, DNA 200 uM (7/21 nt) or 100 uM (48 nt) in syringe; fluorescence assay buffer not given in the …
[5] = tested on: BAF A12T (human); test: fluorescence, dye-labelled coated dsDNA; conditions: mean of 4; ITC: 50 mM Tris-HCl pH 8.0, 150 mM NaCl, 15 C, 20 uM BAF in cell, DNA 200 uM (7/21 nt) or 100 uM (48 nt) in syringe; fluorescence assay buffer not given in the …
[6] = tested on: BAF WT (Cys-less construct) (human); test: fluorescence, dye-labelled coated dsDNA; conditions: mean of 5; ITC: 50 mM Tris-HCl pH 8.0, 150 mM NaCl, 15 C, 20 uM BAF in cell, DNA 200 uM (7/21 nt) or 100 uM (48 nt) in syringe; fluorescence assay buffer not given in the …
[7] = biological target: T1, Di-phosphorylated BAF (BAF …); test: ITC; phosphorylated BAF (pThr3, pSer4)
[8] = biological target: B2; test: ITC; VP-ITC, 15°C; BAF or pBAF dimers at 20 μM in the cell titrated with LamIgF at 100 μM or LEM at 150 μM in the syringe; 50 mM HEPES pH 7.4, 150 mM NaCl; in duplicate; conditions: both partners purified
[9] = biological target: B3; test: as above; conditions: both partners purified
[10] = biological target: T2, Barrier-to-autointegration factor (BAF …); test: ITC
[11] = biological target: T3, IgFold domain of human lamin A/C from …; test: ITC; VP-ITC, 15°C; BAF or pBAF dimers at 20 μM in the cell titrated with LamIgF at 100 μM or LEM at 150 μM in the syringe; 50 mM HEPES pH 7.4, 150 mM NaCl; in duplicate; conditions: both partners purified

Molecule: 7 nt dsDNA
- Kd [1]: 1700 nM and 920 nM
- Kd [2]: 1000 nM and 2100 nM

Molecule: 21 nt dsDNA
- Kd [1]: 300 nM and 210 nM
- Kd [2]: 170 nM and 110 nM

Molecule: 48 nt dsDNA (ITC)
- Kd [1]: 28.8 nM
- Kd [2]: 41.1 nM

Molecule: 48 nt dsDNA, coated
- Kd [3]: 15000 nM
- Kd [4]: 10700 nM
- Kd [5]: 2.5 nM
- Kd [6]: 2.54 nM

Molecule: B1
- Kd [7]: 700 nM
- Kd [8]: ~1000 nM
- Kd [9]: ~1000 nM
- Kd [10]: 1100 nM

Molecule: B2
- Kd [11]: 4500 ± 500 nM

Molecule: B3
- Kd [11]: 4900 ± 800 nM
